Data taken from paper PMC11172124 (Cells, 2024).

T1: Lamin B1 (human (endogenous in MCF10A and MDA-MB-231)), P20700
T1 chain: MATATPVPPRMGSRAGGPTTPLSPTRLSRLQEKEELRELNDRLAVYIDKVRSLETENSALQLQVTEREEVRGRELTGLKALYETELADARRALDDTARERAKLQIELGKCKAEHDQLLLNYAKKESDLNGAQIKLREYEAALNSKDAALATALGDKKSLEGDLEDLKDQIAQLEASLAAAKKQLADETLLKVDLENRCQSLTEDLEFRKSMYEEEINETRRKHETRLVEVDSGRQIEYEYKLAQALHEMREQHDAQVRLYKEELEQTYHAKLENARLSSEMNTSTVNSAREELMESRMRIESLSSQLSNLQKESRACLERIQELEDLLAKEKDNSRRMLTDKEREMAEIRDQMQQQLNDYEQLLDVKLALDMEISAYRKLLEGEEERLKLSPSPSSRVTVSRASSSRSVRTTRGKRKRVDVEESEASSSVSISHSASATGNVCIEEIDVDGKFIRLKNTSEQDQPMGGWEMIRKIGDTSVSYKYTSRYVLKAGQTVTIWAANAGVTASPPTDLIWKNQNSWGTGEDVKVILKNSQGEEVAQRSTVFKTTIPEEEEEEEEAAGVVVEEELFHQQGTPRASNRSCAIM


Assays:
[1] = molecular target: T1, Lamin B1 (human (endogenous in MCF10A …)); experiment: non-reducing SDS-PAGE with Western blot; MCF10A cell lysate with 20 mM N-ethylmaleimide, without β-mercaptoethanol, 4 min at 50 °C, 4–12% gradient gel; shows only disulphide-linked species; settings: remark: other sources report otherwise
[2] = molecular target: the molecule itself; experiment: as above

Binder | stoichiometry N [1] | ratio of the >140 kDa SUN2 signal to the SUN2 monomer signal [2] | stoichiometry N [2]
Lamin B1, P20700 1-586 (natural protein) MATATPVPPRMGSRAGGPTTPLSPTRLSRLQEKEELRELNDRLAVYIDKVRSLETENSALQLQVTEREEVRGRELTGLKALYETELADARRALDDTARERAKLQIELGKCKAEHDQLLLNYAKKESDLNGAQIKLREYEAALNSKDAALATALGDKKSLEGDLEDLKDQIAQLEASLAAAKKQLADETLLKVDLENRCQSLTEDLEFRKSMYEEEINETRRKHETRLVEVDSGRQIEYEYKLAQALHEMREQHDAQVRLYKEELEQTYHAKLENARLSSEMNTSTVNSAREELMESRMRIESLSSQLSNLQKESRACLERIQELEDLLAKEKDNSRRMLTDKEREMAEIRDQMQQQLNDYEQLLDVKLALDMEISAYRKLLEGEEERLKLSPSPSSRVTVSRASSSRSVRTTRGKRKRVDVEESEASSSVSISHSASATGNVCIEEIDVDGKFIRLKNTSEQDQPMGGWEMIRKIGDTSVSYKYTSRYVLKAGQTVTIWAANAGVTASPPTDLIWKNQNSWGTGEDVKVILKNSQGEEVAQRSTVFKTTIPEEEEEEEEAAGVVVEEELFHQQGTPRASNRSCAIM | 2 | – | –
SUN2 (natural protein, UniProt Q9UH99-2 1-738, looked up, SUN2, human, endogenous in MCF10A and MDA-MB-231 cells; detected as a ~80 kDa monomer; Free cysteines were alkylated with 20 mM N-ethylmaleimide when the lysate was made; Which isoform the cells express was not determined; also called SUN-domain protein SUN2) MSRRSQRLTRYSQGDDDGSSSSGGSSVAGSQSTLFKDSPLRTLKRKSSNMKRLSPAPQLGPSSDAHTSYYSESLVHESWFPPRSSLEELHGDANWGEDLRVRRRRGTGGSESSRASGLVGRKATEDFLGSSSGYSSEDDYVEDSEGRGSKVTETEPVSSFPAGYSDVDQQSSSSRLRSAVSRAGSLLWMVATSPGRLFRLLYWWAGTTWYRLTTAASLLDVFVLTRRFSSLKTFLWFLLPLLLLTCLTYGAWYFYPYGLQTFHPALVSWWAAKDSRRPDEGWEARDSSPHFQAEQRVMSRVHSLERRLEALAAEFSSNWQKEAMRLERLELRQGAPGQGGGGGLSHEDTLALLEGLVSRREAALKEDFRRETAARIQEELSALRAEHQQDSEDLFKKIVRASQESEARIQQLKSEWQSMTQESFQESSVKELRRLEDQLAGLQQELAALALKQSSVAEEVGLLPQQIQAVRDDVESQFPAWISQFLARGGGGRVGLLQREEMQAQLRELESKILTHVAEMQGKSAREAAASLSLTLQKEGVIGVTEEQVHHIVKQALQRYSEDRIGLADYALESGGASVISTRCSETYETKTALLSLFGIPLWYHSQSPRVILQPDVHPGNCWAFQGPQGFAVVRLSARIRPTAVTLEHVPKALSPNSTISSAPKDFAIFGFDEDLQQEGTLLGKFTYDQDGEPIQTFHFQAPTMATYQVVELRILTNWGHPEYTCIYRFRVHGEPAH | – | ~1 | 2
